Data as given in the domain aggregation screens of Martell et al. (2025).

Test: soluble fraction after stress (log2 fold change); higher = more stays soluble; pooled small domains, quantitative proteomics
Conditions: stress: 75 degC
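Note: 20 min heating vs room temperature control held 20 min.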

Sequence | soluble fraction (log2)
HMVAGGTVSRKLSIETGLPKRKSLIGSWLDQNSVWHNIISVRHRNGYGDGVNYGFYLRSLLTSEGNLAW | -0.0583
HMNPSIALHDWLQSSEFKGSINLFAAALGMNPRTVEAWVYGRSTPSRRFWAKLYQITNLSRFRL | -1.08
HMQNEQIAFSKFLQEVDSGRVVQVEIQGNNIKGILSDGSKFYTYSPNYPELVGKLSEKGVNIVASPVE | 0.196
HMPPALTELLSVRTNASGTIDYLLPDRSAGLRVENGSKYSGMVPDSIYRLVAIYEIKDAKEPSAYIYTI | -0.0495
HMSEPTLESLRAEGAHHYDPARFHYLEVLARRMPGQHAAVQQVLASRLREAVAAYAGRRSLI | -0.157
HMRPIWVQLADDFRHRIVSGQWPPGSKIPSVRELAAETGVNPNTVQRALGALDGEGLTATERTAGRFVTT | -0.266
HMTKMTPNRQLVLSVLQSSGKPLSAYELLDRLREQGTQWQPPTAYRALDYLVEQGLAHYLQSIQKYV | -1.73
HMGPEAFPVPYVVDIELDRAIYVIEQSGFIVGQKLEANDNNVPRGFVISQNPPAGTKLGPESIVDLVVSS | -1.16
HMSTSRAEIIAFLKSNPSSEYKHELETKLDEMDWAEAVKGNSEESFLAYKQRQPNGTHNGEADEKLKVLLV | -0.0423
HMAISEAERARLQTKIKERNKMARWINTNLNPTSKIRNINPAETVRKLMTQDDADSLERSLDAFMEA | -0.0807
HMKFHENLIALRRREGWSQEELGNRIGVTRQTVSKWELGLTTPELEKLVQLADVFGMTTDQLVGR | -0.295
HMATLQLPVPKITLYPGELIRSDHLTDQRFNARALYHSAVYKSREDIVGKVARRTLLPGQPIPVNALR | -1.07
HMTEKIRLTVDEAGKNQRVDKYISTLLTQFSRSSIKTWIETGNILLDNTRTKPRTLLSPGQVIDIQPRFED | -1.09
HMGSIMIIVLKENAPQQAAEKLMKEIRAKGLQIDVSKGTRKTVLGLVGDTSVIDMEHVQGYDYVDKVLRV | -1.11
HMKSLPQKLLAYLESQGLTRDEAGEFVKQGLKITSNDVDQIQLLLANTEVIDIKLQEFIAQK | 0.0281
HMESLSHRQKSIVDWVQKNGYASIERMAEQFEVSAQTIRRDVIELSERRILQRHHGGASLPAG | -0.211
HMDISAFDTEFIISKFGGIRPMAQKLGVPVSTVQGWKQRQTIPQNRMGDILEAAKNYNLELTP | -0.112
HMIITTPYKVTASAINIRSGRGTSYSIIGTVSKGQTVDVYNNSLSKGWVKVKFSGSVGYAYAKYLEK | -1.62
HMDETYRRQLEDLAREHGAEYLHGILREVDPASAEAIHANNIKRVIRALEFYHLSGKKISEHNETERQ | -0.12
HMKAGEDAVQKAVLEAVAESAAAVADYKAGSERALNFIVGKVMKKTRGKASAAEVHRLVREEVDR | 0.0653
HMAASTPGTVTGSVVNVRPDPSTNNDRIGVIYQGTKVEILAQVGEWYNIQFGPVSGWVHKDYISTGA | -0.421
HMETPEIPGLTPRQVEIMLLVGKGYSNKEIARFLTISPETVKTHLKEVFLRFGLRNRVEAIDFTRQNGL | -0.656
HMEQEVLDLLFDAIRSLPEKYRRLFDMSFEQGLKNAEIAALLHVSESAVKKQKASMIQQLRDDLLRKTGKD | -0.745
HMRPEVALSSRELEILEALATGKSNKELAQRLFISEATVKTHLIHIYQKLGVDTRTAAVTVARERKL | -2.3
HMIYMIDPNDEIAVKLDEIYQRYLNRTIDPEGLIFFYNQIRNAQMGYSDVEKRILESPEYVSIPK | -0.53
HMSNLTDLVSAKEAEVYLHFLESGSTAGMTEAELRAVRKIEELIQSNKIDYNGILRIRNETVK | 0.0216
HMTDFDPDGREKLIKVQKALHFNNHQLADALRVGQATFSSYIYGRVAAGVPVRVVKAAEDLLKNSKATV | -0.531
HMPKHDWDAFAGAIARRVHDHGMPVSQGELVRDMMDWFAGRKDFPPPDERTVRRKVSAIWRELNG | -1.38

Sequence | soluble fraction (log2)
HMGEFVQLKNRTGSVIEAKILNYQNGKVKLQRKDGVIFVVPISIFDRMSSSIIENKAKEMDSF | -0.263
HMDTLRPLGRYQNVHLTKQELTALQSEFSDWSERIERLSSYMASTGRKYQNHAATIRLWAEKDK | 0.0841
HMILKNVPSNLVNQRLDKVATVLFQTYSRTQIKKWILEGRLLVNGEISNPKDLVNENDEIEINPI | -2.95
HMQISDVSLIAKVIDDVIDNNVKSVSDYLEGNLNVLRFLVGQVMKETKGKANPQKATELLQEKLESLNN | -0.896
HMPVASNRDVNLDIGERVFVQEWAPNRTARVQYRGSPWEARLAPGAPAAAGEHRVSAVEGNWLVLEPA | -0.139
HMTLLVPASKEAILGGLAKIDALKVILKPEKDYSKTHAMTIGTKDEVIAKLDSFLSGMDSEKNQVLIQEYM | 0.456
HMYLQKGISNGKVYLSIVHGYRDPVTKKVRRKTIRSLGYLEDLEKQYADPIKHFEAVVAKMNEEEALE | -1.88
HMINLGDLEVGHTYHTRMPILQNDLKYSHKSPIQIVAEHSIVYGVRVYIGFLNEHRVLVTADDV | 0.0105
HMRTITIDDSIAGKRLDEALTLLGAESSRTKVKLLFSSPNGVLVNGEKEKPHYRVEAGDVIQFGELPKK | 0.541
HMYELSDTEWKIIEQVGLGASNKEIAASLHFSEGTIRNYLSVILDKLSLRDRTQLAILYVKMN | -1.11
HMSNNLAYSQFLDRVKNKEIRKVEIRGQSIVGYTSNNETFKTYAPLNDPKMYDELLTNDVQVQVDPP | -0.0765
HMNTVSVGNLGLSVRAVNALKQAGIDTYDKLQELSWEELLLIPKLGQVTAAEIYRFITSYKKG | -1.56
HMLTRSTVNVETGTAAIGLGKLYGVYDMSRKGLKYSFSVDSDAMTKVMEMLLPLGIKSLTVEPPS | -1.55
HMGMAQELMESRLTAVFTSGKDQLAVLQRKDGSTLKLGADSKPWRIESFDGRKAVFVSADQQRVERLL | -0.342
HMVKKYEKVKEYLLERILDGTYVPDLPIPPERELASLLDVNRMTVRRAVEELMYDGYLIRKKGSGTYLTR | -1.6
HMLSDEEKMAALNEQARQRGFTISPGVLPYLITHYQRDMHSLSMILDALDRYSLQTKRTITLPLLHDLLQQ | -1.04
HMKPRVTVVTLGVDDLERAVRFYAEGLGFPTEGIVGREFEFGAVAFFDMQPGLRLALWPRRSLAHDSGLP | -0.373
HMDETELLLQKAIATLPDKQRVVFNLKYFDEMKYEEMSELLETSVGALKASYHLAVKKIEQFFHDA | -0.555
HMGSYVVQLGAFAIRANAEKLAREVDGSIATSGRFSLVRVGPFTSRGQAEQALAKLRARGYSDALIHSL | -2.39
HMSNSMISKDKAMSIALAKVSGATSSNIYIELEKDDGRYTYEGEINFNNKEYEFEIDAYTGNILKWEVDSI | -0.806
HMEDIPENIRYKFLLKELKENEHLNILDKENIARKLTEIDLPELEKELLENEILNSTIKDYLGIKLV | 0.494
HMVQQTEEDVIRDMYVEGKIFTIGEEVTDTYTGVTGKIIRRGTNYVTFMSEDGETYKKWLYEIELA | -0.61
HMLAPLAEMRGDTLDRLEKAVLELFSSRDFHEVSLQDVARRANVSLQTIYKYFGSKEALVYTMLDTLLGR | -0.416
HMSGHEVMVQRITAIIAELYQYGFVSRKKMMDEFNISERTLYRDLNRLGDRIVPDGDGIYRLAPAYA | -1.55
HMRVKLVKKSILASGGENIRVDKFLSNHILTMTRTQIKKLFLDGLVQVNKSFVKPGSILKGNEIITFSIPE | -1.68
HMSDIIVQGNRRLDTDLIITDSQIREIGTDEKSLSLAVKNLYKTGYFENVQIFKDNSVVFINVKENQ | -0.618
HMESLNDRIKLVFKDSGLTQMDISKRLNIAQSSVSGIISGKANPSKRTLADIADRFDVNLEWLRDGTGPMK | 0.474
